Assay results as given in patent US20180049457A1, “ENZYMATIC SYNTHESIS OF SOLUBLE GLUCAN FIBER” (E I DU PONT DE NEMOURS AND COMPANY, priority 2014, published 2018).

Experiment: GTF activity of strains (PAHBAH assay)
Assay type: biochemical
Conditions: enzyme expressed in B. subtilis host
Experimental: GTF activity of the strains was analyzed by PAHBAH assay in three separate experiments. Due to minor variations between the expeirments, Table 2 lists the activity of the truncated enzymes in the B. subtilis host along with the experiment in which the activity was measured. Most of the T1, T2, and T6 truncations decreased the activity of the enzymes, whereas the T4 and T5 C-terminal truncations retained similar activity relative to the respective N terminal-only truncations (NT). […] To identify specific amino acid residues within the catalytic domain that may be involved in producing the soluble α-glucan fiber, we analyzed the crystal structures (PDB Identifiers: 3AIB, 3AIC, and 3HZ3) of the catalytic domains of three glucosyltransferases to identify residues within 8 Angstroms of the bound ligand. 57 residues met that criterion. A motif was generated based on the corresponding 57 amino acids in GTF0459 and each of the identified homologs. The motif was then used to generate a consensus sequence to capture the variability in the catalytic domains of GTF0459 and the identified homologs. The consensus sequence is provided as SEQ ID NO: 153.

B1: GTF4336NT: N terminal-only truncated GTF4336 from Streptococcus salivarius SK126, SEQ ID NO: 104, strain SG1291 (protein)
chain: INGKQYYVNSDGSVRKNFVFEQDGKSYYFDAETGALATKSQDEFSTEPIKATVDFSSGNQLYKNDDKSLDQLDTFITADAWYRPKSILKDGKTWTASTEADKRPLLMVWWPDKSTQVNYLNYMQNQGLGAGSFSTNSSQESLDQAAKAVQTKIEERIAREGNTNWLRTSIDQFIKTQPGWNSSTENSSYDHLQGGQLLFNNSKGDTGNRTSHANSDYRLLNRTPTNQTGTRKYFKDNSIGGLEFLLANDIDNSNPAVQAEQLNWLHFMMNIGSIMANDPTANFDGLRVDALDNVDADLLQIASDYFKAAYGVDKSEANAIKHLSYLEAWSANDPYYNKDTKGAQLPIDNALRNALTNLLMRDKNTRMQLGDMTAFINSSLNPRGANDKNGERMANYIFTRAHDTEAQTIIQRIIRDRINPNLFGYNFTRDEIKKAFEIYNEDIDKAHKTYASYNLPSVYALMLTNKDSVTRVYYGDLYREDGHYMAKKTPYFDAIDTLLRARIKYVAGGQDMEVKKVGNDGLLTSVRYGKGANNRTDLGTSETRTQGMGVIMTNNYDFRLGSNETVTMNMGRAHRNQLYRPLLLTTKDGIATYFNDSDVPKNLLKRTDWNGNLTFNANDVFGVENVQVSGYLGVWVPVGAKANQDARTQPSNRANSDGQVYKSSAALDSQVMYEAFSNFQAFADDQPELYMNRVLAKNTDLLKAWGVTSVGLPPQYVSSKDGTFLDSTIDNGYAFDDRYDMALSQNNKYGSLEDLLNVLRALHKDGIQAIADWVPDQIYNLPGKEVVNATRVNGYGYHQQGYQIVDQAYVANTRTDGTDYQGKYGGAFLDELKAKYPSIFNRVQISNGKQLPTNEKITKWSAKYFNGTNILGRGINYVLRDDKTNQYFNTSANSQLLPTPLRDTGAITSTQVFQRRGQDVYFLRDNQAVKNEFVQDGNGNWYYFGADGKMTKGAQTINKKDYYFFDNGIQLRNALRRANNGYTYYYGLDGAMVKNAFVDFDDKRKQVRAFTTQGTMVVGNLHWSGHHFYFDRETGIQAKDRIVRTDDGKLHYYVAGTGDMGRNVFATDSSTGKRYYFDADGNTVTGSRVIDGKTYYFNQDGSVGTAYSNRADSIIFENGKARYITPAGEIGRSIFVYNPATKAWNYFDKEGNRVTGRQYIDGHLYYFKEDGSQAKGEIIEENGIKYYYEPESGILASGRYLQVGDDQWMYFKQDGSLAIGQVRADHGYLKYFDKNGIQVKGKTIVEDGKTYYYDAHSGALVTSSFAEIAPNQWSYFNTDGQALKGKWTINGKEYYFDQNGIQYKGKAVKVGSRYKYYDENDGQPVTNRFAQIEPNVWAYFGADGYAVTGEQVINGQHLYFDQSGRQVKGAYVTVNGQRRYYDANTGEYVPGR
modifications: Streptococcus salivarius SK126
With B1 the “GTF activity of strains: Acitivity” value (Experiment Number 1) was 34.5 U/mL and the “GTF activity of strains: Acitivity” value (Experiment Number 2) was 48.6 U/mL.
